Source: PMC2876975

How the values were obtained:
[1] = molecular target: c-Myc–HMPV P, in vitro translated, unlabelled (human metapneumovirus strain TN/96-12); assay: co-IP
[2] = molecular target: c-Myc–HMPV N, in vitro translated, unlabelled (human metapneumovirus strain TN/96-12); assay: co-IP

Row | Substance | percent co-immunoprecipitated [1] | percent co-immunoprecipitated [2]
1 | Radiolabelled native HMPV N, in vitro translated (natural protein) | < 1% | 
2 | Radiolabelled native HMPV P, in vitro translated (natural protein) |  | < 1%
